Source: patent US11407819B2, “Compositions and use of a fibrinogen binding motif present in EFB and COA for therapeutics and vaccines against Staphylococcus aureus” (priority 2013, dated 2022)
Entries after “also recorded” stand apart in the source; their conditions may differ.

T1: rEfb-N binding to Fg (Homo sapiens, UniProt P02671+P02675+P02679)
T1 construct: full-length human Fibrinogen (diluted in PBS, Enzyme research); purchased Enzyme research; host or cells: Efb probe made in E. coli
T1 sequence (P02671 20-629 limits assumed): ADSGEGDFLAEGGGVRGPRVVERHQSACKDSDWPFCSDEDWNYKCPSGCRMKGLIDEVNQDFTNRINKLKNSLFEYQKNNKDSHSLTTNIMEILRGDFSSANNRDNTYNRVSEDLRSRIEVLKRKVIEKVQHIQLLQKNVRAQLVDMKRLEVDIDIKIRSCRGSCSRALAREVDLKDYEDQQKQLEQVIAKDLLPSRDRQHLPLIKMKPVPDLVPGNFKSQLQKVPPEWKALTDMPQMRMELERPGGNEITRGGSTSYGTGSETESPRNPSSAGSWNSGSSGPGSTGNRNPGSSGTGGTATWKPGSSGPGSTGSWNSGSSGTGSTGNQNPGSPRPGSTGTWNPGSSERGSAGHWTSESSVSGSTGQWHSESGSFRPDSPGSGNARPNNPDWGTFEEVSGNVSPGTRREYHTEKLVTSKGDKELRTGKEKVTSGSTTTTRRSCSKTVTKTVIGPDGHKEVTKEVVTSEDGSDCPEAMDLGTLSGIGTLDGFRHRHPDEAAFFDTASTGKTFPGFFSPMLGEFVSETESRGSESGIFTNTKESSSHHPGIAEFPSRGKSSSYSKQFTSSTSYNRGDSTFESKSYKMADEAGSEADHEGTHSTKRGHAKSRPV
T1 sequence (P02675 31-491): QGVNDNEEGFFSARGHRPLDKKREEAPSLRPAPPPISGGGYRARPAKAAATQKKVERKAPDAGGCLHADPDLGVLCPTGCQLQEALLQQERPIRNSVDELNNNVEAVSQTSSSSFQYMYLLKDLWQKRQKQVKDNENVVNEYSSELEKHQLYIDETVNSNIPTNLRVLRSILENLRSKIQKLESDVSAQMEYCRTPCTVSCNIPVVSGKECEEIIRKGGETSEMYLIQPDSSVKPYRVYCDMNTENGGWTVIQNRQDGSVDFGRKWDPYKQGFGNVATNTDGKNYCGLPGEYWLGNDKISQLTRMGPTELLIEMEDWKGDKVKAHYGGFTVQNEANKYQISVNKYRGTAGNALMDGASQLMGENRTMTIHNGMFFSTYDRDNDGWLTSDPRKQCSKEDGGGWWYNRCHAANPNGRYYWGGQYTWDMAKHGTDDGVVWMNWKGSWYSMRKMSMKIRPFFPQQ
T1 sequence (P02679 27-453): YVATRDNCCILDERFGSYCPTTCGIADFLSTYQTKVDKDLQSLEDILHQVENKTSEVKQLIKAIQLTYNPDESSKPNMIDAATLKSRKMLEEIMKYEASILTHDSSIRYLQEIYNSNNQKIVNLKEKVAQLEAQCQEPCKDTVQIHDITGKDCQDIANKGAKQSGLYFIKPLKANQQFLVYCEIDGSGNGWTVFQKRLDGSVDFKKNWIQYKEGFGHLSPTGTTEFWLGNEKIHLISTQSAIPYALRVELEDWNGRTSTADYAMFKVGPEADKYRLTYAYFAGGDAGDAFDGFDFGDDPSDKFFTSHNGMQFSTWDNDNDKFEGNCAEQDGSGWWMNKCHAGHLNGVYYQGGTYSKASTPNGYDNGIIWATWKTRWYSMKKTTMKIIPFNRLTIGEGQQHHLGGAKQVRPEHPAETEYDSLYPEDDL

B1: FBE5-A12: VH SEQ ID NO: 73, VL SEQ ID NO: 103 (antibody, V domains shown)
VH: QVQLVESGGGVVQPGRSLRLSCAASGFTFSSYGMHWVRQAPGKGLEWVAVISYDGSNKYYADSVKGRFTISRDNSKNTLYLQMNSLRGEDTAVYYCAREGGWEPNGLDYWGQGTLVTVSS
VL: QAVLTQPPSASGTPGQRVTISCSGSDFNVGTNYVNWYQQLPGSAPKLLIYRNNQRPSGVPDRFSGSKSGTSATLGITGLQTGDEADYYCGTWDSSLSAEVFGGGTKLTVL
B2: FBE5-F9: VH SEQ ID NO: 80, VL SEQ ID NO: 110 (antibody, V domains shown)
VH: QMQLVQSGGGVVQPGRSLRLSCAASGFTFSSYGMHWVRQAPGKGLEWVAVISYDGSNKYYADSVKGRFTISRDNSKNTLYLQMNSLRAEDTAVYYCAKEGDGDYGGVLDYWGQGTLVTVSS
VL: QSVLTQPPSVSAAPGQKVTISCSGSSSNIEKNYVSWYQQLPGTAPKLLIYDNNKRPSGIPDRFSGSKSGTSATLGITGLQTGDEADYYCGTWDSSLSAVVFGGGTKLTVL

Experiments:
[1] = target: T1, rEfb-N binding to Fg; test: Competition ELISA, peptide inhibition of rEfb-N (Efb 30-104) binding to Fg; settings: increasing concentration of peptides; 2 nM GST fusion protein
Excerpt: Coa-F contains an Efb like fibrinogen binding motif. FIG. 11A is an image of a ClustalW alignment of amino acid sequence from Efb-O (Efb 68-98) and Coa from Newman strain (col-Newman). Sequence similarity was identified at Coa 474-505. Bold letters denote conserved residues and underlined letters represent similar residues. FIGS. 11B and 11C show a comparison of amino acid sequence of Efb-O with Coa 474-505 (FIG. 11B) and Coa 506-532 (FIG. 11C). Large letters in Efb-O indicate the residues important for Fg binding. The red letters show the identical residues and the yellow letters indicate the similar residues. […] Increasing concentration of Coa peptides was incubated with 2 nM GST fusion proteins in Fg-coated microtiter wells. Closed square, sCoa-O; closed circle, sCoa-RI; closed triangle, sEfb-O.
A peptide was synthesized that corresponds to the Coa-O sequence (sCoa-O) and determined its Fg binding activity in a competition ELISA. Microtiter wells were coated with Fg and binding of the recombinant N-terminal segment of Efb (rEfb-N), that harbors the two Fg binding sites, was quantitated in the presence of increasing concentration of different synthetic peptides.
In the case of peptide inhibition assay, various concentration of Efb or Coa peptides were mixed with a fixed concentration of Coa-GST or Efb-GST fusion proteins (5-10 nM) in TBS and the bound GST fusion proteins were detected through incubation with HRP-conjugated rabbit anti-GST polyclonal antibodies (5000× dilution). All proteins were diluted in TBS containing 1% BSA and 0.05% TWEEN® 20 and the ELISA assays were carried out at room temperature.

[2] = test system: THP-1 cells; test: THP-1 cell adherence to immobilized Fg; format: cell-based
Method: Cell adherence assay using cell lines—A monocytic cell line THP-1 cell stably expressing αMβ2 was maintained in RPMI1640 supplemented with 10% fetal bovine serum, […] L-glutamine, 100 units/ml penicillin and 100 μg/ml streptomycin. Prior to use, cells were harvested by centrifuge, washed and suspended in RPMI 1640/1% human serum albumin. For cell adherence assays, 48-well plates were coated with 200 μl of Fibrinogen (10 μg/ml) overnight at 4° C. followed by 1 hour at 37° C. before blocking with 1% Polyvinylpyrrolidone (PVP 3600 kDa) for 45 minutes at 37° C. Subsequently, the cells were seeded 2×10^5/well in the presence or absence of Coa or Efb recombinant proteins or peptides and incubated at 37° C. for 25 minutes. Non-adherent cells were removed by washing gently three times with PBS/1% BSA. Adherent cells were quantitated with CyQuant kit according to the manufacturer's manual.

[3] = test system: Coa-F, Coa-R0, Efb-N, Efb-O, Efb-A binding to Fg; test: Inhibition by FBE5 scFv-Fc of Coa and Efb fragment binding to immobilized human Fg; parameters: species or system Staphylococcus aureus; settings: scFv-Fc 0.5, 5, 50 μg/ml; for inhibition of binding to Fg of all proteins tested: Coa-F, Coa-R0, Efb-N, Efb-O 10 nM, Efb-A 750 nM
Method: To assess the inhibitory activity of anti-Coa scFv-Fc antibodies, 0.5 μg/well of human Fg was immobilized at 4° C. overnight in 50 mM Carbonate Buffer, pH 9.6. Indicated amounts (50, 5, 0.5 μg/ml) of scFv-Fcs prepared in 2% BSA+1×TBS+0.05% TWEEN® 20 were pre-incubated for 1 hour with a constant concentration of Coa or Efb fragments also prepared in 2% BSA+1×TBS+0.05% TWEEN® 20 at room temperature, 250 rpm shaking. Specifically, Coa-F, Coa-R0, Efb-N and Efb-O were at a fixed concentration of 10 nM; whereas Efb-A was at 750 nM. Fg-binding activity of each protein alone was also checked (no mAb control—0 μg/ml). The Fg-coated plate was blocked with 2% BSA-TBST and washed with PBST. […] Residual bound Coa and Efb fragments were detected with HRP-conjugated (HorseRadish Peroxidase-conjugated) α-GST-tag antibody, except for Efb-N, where an HRP-conjugated α-HIS-tag was used (see FIG. 18). HRP-tagged antibodies were diluted in 2% BSA+1×TBS+0.05% TWEEN® 20 and used at 1:10000 dilution. […] HRP signal was developed using […]™ OPD tablets using manufacturer's guidelines. Binding of Coa and Efb fragments to Fg (no mAb control) was set to 100% and residual binding to Fg of Coa and Efb fragments in the presence of different concentrations of antibodies was calculated and represented.
To assess the inhibitory activity of anti-Coa scFv-Fc antibodies, 0.5 μg/well of human Fg was immobilized at 4° C. overnight in 50 mM Carbonate Buffer, pH 9.6. Indicated amounts (0, 0.5, 5, and 50 μg/ml) of scFv-Fcs were pre-incubated for 1 hour with a constant concentration of Coa or Efb fragments. Specifically, Coa-F, Coa-R0, Efb-N and Efb-O were at a fixed concentration of 10 nM; whereas Efb-A was at 750 nM. Fg-binding activity of each protein alone was also checked (no mAb control—0 μg/ml). The Fg-coated plate was blocked with 2% BSA-PBST and washed with PBST. The pre-incubated mixture of Coa/Efb and anti-Coa scFv-Fc was transferred on the Fg-coated plate. Residual bound Coa and Efb fragments were detected with HRP-conjugated (HorseRadish Peroxidase-conjugated) α-GST-tag antibody, except for Efb-N, where an HRP-conjugated α-HIS-tag was used. Binding of Coa and Efb fragments to Fg (no mAb control) was set to 100% and residual binding to Fg of Coa and Efb fragments in the presence of different concentrations of antibodies was calculated and represented.

| Molecule | inhibition of rEfb-N binding to Fg [1] | inhibition of THP-1 adherence to immobilized Fg ([2]; M1/70 20 μg/ml, rEfb 0.2 μM, rCoa 0.5 μM, peptides 0.5 μM each) | reversal of inhibition of THP-1 adherence elicited by rEfb or rCoa ([2]; peptide 50 μM preincubated with rEfb (0.2 μM) or rCoa (0.2 μM)) | inhibition of CoaF, CoaRO and EfbA binding to Fg [3] | inhibition of EfbN and EfbO binding to Fg [3] | inhibition of binding to Fg of all proteins tested [3] |
| --- | --- | --- | --- | --- | --- | --- |
| sCoa-O: synthetic peptide corresponding to Coa-O, residues Coa 474-505 (KYVKYRDAGTGIREYNDGTFGYEARPRFNKPS) | potent inhibitor; also recorded: effectively inhibited rEfb-N binding to Fg | did not inhibit THP-1 adherence | reverses the inhibitory activities |  |  |  |
| B1 |  |  |  | clear inhibition | less efficient | dose dependent inhibition of all proteins tested |
| B2 |  |  |  | clear inhibition | less efficient | dose dependent inhibition of all proteins tested |
